Patent US20020146411A1, “Anticoagulant agents useful in treatment of thrombosis” (SmithKline Beecham Corporation, priority 1996, published 2002)
Entries after “also recorded” stand apart in the source; their conditions may differ.

Tests used:
[1] = test system: rat carotid artery thrombosis; experiment: Rat carotid artery thrombosis model, humanized mAbs, Example 8; format: in vivo; details: 3.0 mg/kg i.v. bolus, 60 minutes after onset of injury
Protocol: In order to evaluate the efficacy of humanized anti-Factor IX antibodies in prevention of arterial thrombosis, the rat carotid artery thrombosis model as described above in Example 3 was used. Baseline parameters were established for carotid blood flow, arterial pressure, heart rate, vessel patency and activated partial thromboplastin time (aPTT). Fifteen minutes thereafter, carotid injury was effected for […]. The parameters were determined 60 minutes after onset of carotid injury. Carotid thrombus was also extracted from the carotid artery and weighed.
All agents were administered intravenously 15 minutes before the onset of carotid injury. The following treatments were examined and compared to the anti-Factor IX mAb BC2.

rhFIX = target: T1, rhFIX (Homo sapiens, UniProt P00740, T194A); experiment: Titration microcalorimetry of rhFIX binding
T1 construct: purchased Genetics Institute
Protocol: The interactions between rhFIX and SB 249417 BC2 and other humanized constructs were characterized by titration microcalorimetry, which measures binding interactions in solution from the intrinsic heat of binding. Nine injections of 106 uM FIX were made into the calorimeter containing 2 uM mAb SB 249417. Binding was detected in the first 4 injections as exothermic heats. At the last 5 injections the mAb binding sites were saturated with FIX and only background heats of mixing were observed. […] Nonlinear least squares analysis of the data yield the binding affinity.
The data in Table 3 indicate that the affinities of SB 249417, BC2 and its other humanized constructs are within error (a factor of 2) the same.

[2] = target: Factor IX to IXa conversion (Homo sapiens, UniProt P00740); experiment: Inhibition of Factor IX to IXa conversion (Table I); format: biochemical
Factor IXa = target: T2, Factor IXa (Homo sapiens, UniProt P00740); experiment: Binding to Factor IXa (Table I)
T2 construct: as well as the active protease, Factor IXa

[3] = target: T3, Recombinant human Factor IX (rhFIX) (Homo sapiens, UniProt P00740, T194A); experiment: BIAcore kinetics of Factor IX binding to mAb on protein A surface; details: rhFIX 49 nM, 5 mM Ca2+, biosensor
T3 construct: purchased Genetics Institute
Protocol: The kinetics of Factor IX binding to SB 249417 was assessed by BIAcore analysis with antibody bound to an immobilized protein A surface. Recombinant human Factor IX (rhFIX, Genetics Institute) at 49 nM was used and measurements performed in the presence of 5 mM Ca^2+. The interaction was characterized by rapid association, kass 2.0×10^5 M^−1 s^−1 and relatively slow off-rate, kdiss=4.1×10^−4 s^−1.

Factor IX gla domain = experiment: Epitope mapping of BC2 with Factor IX/Factor VII chimeric constructs; format: binding
Protocol: A library of chimeric constructs composed of sequences of Factor IX spliced into the framework of the homologous protein Factor VII was constructed and used to map the epitope for the Factor IX BC2 mAb. See Cheung et al., Thromb. Res. 80, 419-427 (1995). Binding was measured using a BiaCore 2000 surface plasmon resonance device. The BC2 antibody was coupled directly to the chip using the NHS/EDC reaction. Binding was measured by 2 min of contact time at 20 uL/min with 200 nM of each of the given constructs in 25 mM MOPS, pH 7.4, 0.15 M NaCl, 5 mM CaCl2. Dissociation was monitored for 3 min using the same buffer with no protein. No binding was detected to the wild type construct in the presence of 50 mM EDTA.

Factor IX [4] = target: T4, Factor IX (Homo sapiens, UniProt P00740); experiment: Binding to Factor IX (in vitro properties, Table I); design: Human plasma samples were either freshly drawn and kept on ice or reconstituted; host or cells: human plasma
Protocol: Approximately two weeks later, 1.0 mL of hybridoma medium was removed from each well and tested for anti-Factor IX antibodies using an ELISA assay as described by Jenny, R. J. et al. in Meth. Enzymol. 222, 400-416 (1993). Briefly, factor IX was immmobilized onto plastic wells of 96-well microtiter plates. Hybridoma supernatants or dilutions of purified antibody were then incubated in the wells. The wells were washed and the presence of antibody-antigen complexes detected with a goat anti-murine immunoglobulin second antibody conjugated to horseradish peroxidase and the chromogenic substrate o-dianisidine.
Target sequence in this assay (P00740 47-461): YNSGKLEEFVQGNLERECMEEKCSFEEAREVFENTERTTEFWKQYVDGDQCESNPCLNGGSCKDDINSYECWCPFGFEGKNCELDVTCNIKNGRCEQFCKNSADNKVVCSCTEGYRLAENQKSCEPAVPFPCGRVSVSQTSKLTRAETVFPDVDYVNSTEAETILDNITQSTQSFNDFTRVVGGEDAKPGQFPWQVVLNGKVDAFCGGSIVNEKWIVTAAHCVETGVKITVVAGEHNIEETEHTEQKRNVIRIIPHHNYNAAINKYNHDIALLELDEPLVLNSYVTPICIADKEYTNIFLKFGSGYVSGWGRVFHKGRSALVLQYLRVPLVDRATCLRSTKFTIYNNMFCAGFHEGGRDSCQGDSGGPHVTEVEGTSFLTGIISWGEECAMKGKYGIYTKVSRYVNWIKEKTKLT

[5] = target: T5, Factor IXa in Xase complex (Homo sapiens, UniProt P00740); experiment: Inhibition of IXa activity in Xase complex (Table I); format: biochemical
T5 construct: as well as the active protease, Factor IXa

[6] = test system: Cynomologous monkey Factor IX; experiment: Species cross-reactivity, monkey Factor IX; format: binding
Factor IX [7] = target: T4, Factor IX; experiment: aPTT clotting time of human plasma, anti-Factor IX mAbs; format: biochemical; design: Human plasma samples were either freshly drawn and kept on ice or reconstituted; host or cells: human plasma
Protocol: The effect of increasing concentrations of anti-coagulation factor antibodies on activated partial thromboplastin time (aPTT) of human plasma was determined in a fibrometer (Becton-Dickinson Microbiology Systems, Cockeysville, Md.) using Baxter reference procedure LIB0293-J, 3/93 revision (Baxter Scientific, Edison, N.J.).
Prior to the start of the experiment, 2 to 3 mL of 0.02 M CaCl2 in a 5 mL tube were placed into the heating chamber of the fibrometer. Human plasma samples were either freshly drawn and kept on ice or reconstituted per the manufacturer's recommendation from Hemostasis Reference Plasma (American Diagnostics, Greenwich, Conn.).
Unfractionated heparin from porcine intestinal mucosa (Sigma Chemical, St. Louis, Mo.), low molecular weight heparin from porcine intestinal mucosa (Lovenox®, enoxaparin sodium, Rhone-Poulenc Rorer Pharmaceuticals, Collegeville, Pa.) or mAb anticoagulants were prepared as approximately 50 uM stock solutions and serially diluted directly into the test plasma. A blank containing plasma without anticoagulant was included as a reference.
Two fibroTube® fibrometer cups were filled with 100 ul test plasma or 100 ul test plasma with anticoagulant and 125 ul of actin activated cephaloplastin reagent (Actin reagent, from rabbit brain cephalin in ellagic acid, available from Baxter Scientific), respectively and placed in the fibrometer wells at 37° C.
After one minute, 100 ul of actin reagent was transferred to a plasma-containing cup and the contents mixed several times with a pipette. After a 3 minute incubation, 100 ul of CaCl2, prewarmed at 37° C., was added to the plasma-actin reagent mixture using a Automatic Pipette/Timer-trigger (Becton-Dickinson). The clotting times were noted and the results in FIG. 1 are presented as clotting times as a function of final concentrations of anticoagulant in the total assay volume of 300 ul. The nominal concentration of Factor IX in the assay is 30-40 nM.
Target sequence in this assay (P00740 47-461): as above

[8] = test system: rat carotid artery thrombosis; experiment: Rat carotid artery thrombosis model (FeCl3 injury), Example 3; format: in vivo
Source text: In order to evaluate the efficacy of anti-Factor IX antibodies in prevention of arterial thrombosis, the rat carotid artery thrombosis model as reported by Schumacher et al. in J. Cardio. Pharm. 22, 526-533 (1993) was adapted. This model consists of segmental injury to the carotid endothelium by oxygen radicals generated by FeCl3 solution applied on the surface of the carotid artery.
In brief, rats were anesthetized with pentobarbitone sodium, the jugular vein cannulated for intravenous injections and the left femoral artery cannulated for blood pressure and heart rate monitoring. The carotid artery was isolated by aseptic technique via a surgical incision in the neck and equipped with a magnetic flow probe for blood flow measurement. After a period of stabilization, baseline parameters were established for the following variables: carotid blood flow, arterial pressure, heart rate, activated partial thromboplastin time (aPTT) and prothrombin time (PT). Thereafter, a premeasured Whatman filter paper soaked in 50% FeCl3 solution was placed on the carotid artery for 15 minutes for complete injury of the underlying endothelial cells. After removal of the FeCl3 soaked paper, the experiment was followed to completion over 60 minutes. At the end of the experiment, the carotid thrombus was extracted from the carotid artery and weighed.
All agents were administered 15 minutes prior to the onset of carotid injury. The following treatments were examined and compared to the Factor IX mAb BC2.
1. Heparin: 15, 30, 60 or 120 U/kg bolus, followed by infusion of 0.5, 1, 2 or 4 U/kg/min, respectively over 60 minutes
2. Acetylsalicylic acid (ASA, aspirin): 5 mg/kg bolus
3. Anti-Factor IX mAb BC2: 1, 3 or 6 mg/kg bolus, followed by infusion 0.3, 1, or 2 ug/kg/min, respectively over 60 minutes
4. Heparin: 30U/kg bolus+lU/kg/min+ASA at 5 mg/kg
5. Anti-Factor IX mAb BC2: 1 mg/kg+0.3 ug/kg/min+ASA at 5 mg/kg

Factor IX [9] = target: T4, Factor IX; experiment: Cofactor requirement for mAb activity (Table I)
Target sequence in this assay (P00740 29-461 limits assumed): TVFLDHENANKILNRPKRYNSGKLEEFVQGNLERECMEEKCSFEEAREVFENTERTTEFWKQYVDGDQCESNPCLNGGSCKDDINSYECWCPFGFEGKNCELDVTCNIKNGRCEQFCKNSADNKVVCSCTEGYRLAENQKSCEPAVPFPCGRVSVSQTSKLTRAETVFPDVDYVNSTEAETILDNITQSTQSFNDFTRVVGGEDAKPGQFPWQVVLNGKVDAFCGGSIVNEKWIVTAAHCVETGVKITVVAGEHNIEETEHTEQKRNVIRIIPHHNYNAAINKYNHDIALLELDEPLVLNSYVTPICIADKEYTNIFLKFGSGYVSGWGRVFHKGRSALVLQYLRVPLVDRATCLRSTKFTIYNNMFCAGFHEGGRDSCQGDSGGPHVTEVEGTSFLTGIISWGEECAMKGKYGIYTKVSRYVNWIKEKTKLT

rat Factor IX = rat Factor IX (Rattus norvegicus, UniProt P16296); experiment: Species cross-reactivity, rat Factor IX; format: binding
rat Factor IX, sequence (P16296 40-462): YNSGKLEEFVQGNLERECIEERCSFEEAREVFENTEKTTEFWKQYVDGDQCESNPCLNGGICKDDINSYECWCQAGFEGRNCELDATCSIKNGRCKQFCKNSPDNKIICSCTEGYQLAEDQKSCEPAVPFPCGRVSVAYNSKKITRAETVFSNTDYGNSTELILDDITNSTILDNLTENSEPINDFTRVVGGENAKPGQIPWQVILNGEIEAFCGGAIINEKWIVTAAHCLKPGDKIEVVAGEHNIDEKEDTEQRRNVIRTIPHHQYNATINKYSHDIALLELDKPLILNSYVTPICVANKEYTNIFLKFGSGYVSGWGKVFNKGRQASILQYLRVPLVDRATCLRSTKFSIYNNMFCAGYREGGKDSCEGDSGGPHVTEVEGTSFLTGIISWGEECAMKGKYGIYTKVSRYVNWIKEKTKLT

T3 sequence (P00740 47-461 T194A): as the sequence (P00740 47-461) above, with T148A counted along it
T5 sequence (P00740 47-191 limits assumed): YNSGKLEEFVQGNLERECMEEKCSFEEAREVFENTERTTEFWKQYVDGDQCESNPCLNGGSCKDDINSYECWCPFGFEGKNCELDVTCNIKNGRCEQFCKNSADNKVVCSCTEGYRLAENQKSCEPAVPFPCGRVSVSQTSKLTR
T5 sequence (P00740 227-461 limits assumed): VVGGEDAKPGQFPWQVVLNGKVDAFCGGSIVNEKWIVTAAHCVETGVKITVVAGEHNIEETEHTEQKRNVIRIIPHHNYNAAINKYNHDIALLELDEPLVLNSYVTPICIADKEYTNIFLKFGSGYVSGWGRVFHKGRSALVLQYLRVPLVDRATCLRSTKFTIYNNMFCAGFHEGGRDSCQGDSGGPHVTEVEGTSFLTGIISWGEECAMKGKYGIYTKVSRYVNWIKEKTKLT
T2 sequence (P00740 47-191 limits assumed): as the sequence (P00740 47-191 limits assumed) above
T2 sequence (P00740 227-461 limits assumed): as the sequence (P00740 227-461 limits assumed) above
T1 sequence (P00740 47-461 T194A): as the sequence (P00740 47-461) above, with T148A counted along it
Factor IX to IXa conversion, sequence (P00740 29-461 limits assumed): as the sequence (P00740 29-461 limits assumed) above

B1: SB 249417: humanized anti-Factor IX mAb, heavy chain F9HZHC 1-1 (SEQ ID NO: 52), light chain F9HZLC 2-0 (SEQ ID NO: 74) (antibody, V domains shown)
VH: QVQLVQSGSELKKPGASVKVSCKASGYTFTNYGMNWVRQAPGQGLKWMGWINTRNGKSTYVDDFKGRFVFSLDSSVSTAYLQISSLKADDTAVYYCTREGNMDGYFPFTYWGQGTLVTVSS
VL: QIVLTQSPSSLSASVGDRVTITCRASSSVNYMHWYQQKPGKAPKPWIYATSNLASGVPSRFSGSGSGTDYTFTISSLQPEDIATYYCQQWSINPRTFGQGTKVEIKR
effect on aPTT (FIG. 8) [1]: modest effect | Stoichiometry of Factor IX Binding, Isothermal Titration Calorimetry (rhFIX): 1.5 moles Factor IX: 1 mole mAb

B2: BC2: murine monoclonal antibody directed against human Factor IX and/or Factor IXa, isotype IgG2a (antibody, V domains shown)
VH: QIQLVQSGPELKKPGETVKISCKASGYTFTNYGMNWVKQAPGKGLKWMGWINTRNGKSTYVDDFKGRFAFSLESSASTANLQIDNLKDEDTATYFCTREGNMDGYFPFTYWGQGTLVTVSA
VL: QIVLSQSPAILSASPGEKVTMTCRASSSVNYMHWYQQKPGSSPKPWIYATSNLASGVPARFSGSGSGTSYSLTISRVEAEDAATYYCQQWSINPRTFGGGTKLEIKR
Inhibits IX to IXa conversion [2]: yes | Binds Factor IXa (Factor IXa): binds Factor IXa and yes | kass [3]: 480000 M⁻¹ s⁻¹ | kdiss [3]: 0.00091 s⁻¹ | epitope (Factor IX gla domain): residues 3-11 of the Factor IX gla domain | Binds Factor IX (Factor IX [4]): yes | Inhibits IXa activity in Xase complex [5]: inhibits Factor IXa activity and yes | Species cross-reactivity: monkey Factor IX [6]: cross-react | [formula] (row head is a formula not shown) (Factor IX [7]; Table I, the values are: max aPTT as % of normal aPTT): 350% | aPTT at saturating concentrations of mAb (Factor IX [7]; normal human plasma, FIG. 1): about 90 sec | increase of the aPTT at saturating concentrations (Factor IX [7]; normal human plasma, FIG. 1): 3.5 fold | maximal value of clot time in the aPTT assay (Factor IX [7]; self-limiting effect, summary description): about 100 seconds | effect on prothrombin time (PT) at 60 minutes (FIG. 5) [8]: not by any of the Factor IX mAb doses | effect on thrombus weight (FIG. 7) [8]: dose-dependently reduced | effect on carotid artery occlusion ([8]; Factor IX mAb at the two higher doses (3, 6 mg/kg bolus + infusion)): completely blocked | effect on thrombus formation ([8]; high dose of Factor IX mAb): virtually prevented completely | increase in clotting time (aPTT) ([8]; highest dose of Factor IX mAb (6 mg/kg bolus + 2 ug/kg/min)): ≤ 3 fold | effect on carotid artery occlusion (patency) ([8]; lower dose of Factor IX mAb alone (1 mg/kg + 0.3 ug/kg/min)): largely failed to secure patency | effect on aPTT at 60 minutes (FIG. 4) ([8]; regimens of b146-b150, given 15 minutes before injury): modest effect | Cofactor requirement (Factor IX [9]): Divalent metal cofactors are required for activity; also recorded: Ca^2+ > Mn^2+ | Species cross-reactivity: rat Factor IX (rat Factor IX): cross-reacted; also recorded: species cross-reactivity with rat
